Reference: a protein production outcome set (Wang et al. 2014)

Assay: label from the status in PepcDB records

In the case of “MFFKQFYDNHLSQASYLVGCQRTGEAIIIDPVRDLSKYIEVADSEGLTITQATETHIHADFASGIRDVAKRLNANIYVSGEGEDALGYKNMPSKTQFVKHGDIIQVGNVKLEVLHTPGHTPESISFLLTDLGGGSSVPMGLFSGDFIFVGDIGRPDLLEKSVQIKGSTEISAKQMYESVQNIKNLPDYVQIWPGHGAGSPCGKALGAIPISTIGYEKINNWAFNEIDETKFIESLTSNQPAPPHHFAQMKQVNQFGMNLYQSYDVYPSLDNKRVAFDLRSKEAFHGGHTKGTINIPYNKNFINQIGWYLDFEKDIDLIGDKSTVEKAKHTLQLIGFDKVAGYRLPKSGISTQSVHSADMTGKEEHVLDVRNDEEWNNGHLDQAVNIPHGKLLNENIPFNKEDKIYVHCQSGVRSSIAVGILESKGFENVVNIREGYQDFPESLKLEHHHHHH”, the protein production is reported as “not failed”.
In the case of “MEDIEYLDEYKDLVLPGIKSSAPTASSAGVPRQRRISSDSSNSSSIDADIFQKLFHGKYLDDELLKEGSGSKSQDRRRRPPSPSSSDESNDALEALFCGK”, the protein production is reported as “failed”.
For “MVTTRKPLRAAIIGLGRLGERHARHLVNKIQGVKLVAACALDSNQLEWAKNELGVETTYTNYKDMIDTENIDAIFIVAPTPFHPEMTIYAMNAGLNVFCEKPLGLDFNEVDEMAKVIKSHPNQIFQSGFMRRYDDSYRYAKKIVDNGDIGKIIYMRGYGIDPISGMESFTKFATEADSGGIFVDMNIHDIDLIRWFTGQDPVQAYGLTSNIAAPQLADIGEFETGVAQLKMSDGVIATLIGGRHAAHGNQVELEVMGSNGWVRIGEHPDLNRVTVFNDQGVVRPSLQSFGERFDTAFTDEVQDFVNNVIVGKQPEVTVDDGIKALKIAKACQQSANIGKLVDIQL”, the protein production was “failed”.
For “MSHSVEAEDNKLVKTFKDIIPLTFGEEIGNSVSHGVAAFIALCALPYAAIHSFLEYGVLGAFSVSVYVISIFLMFISSTVYHAMPNQSSHKFILRIIDHSMIYVAIAGTYTPICLTLVGGWIGWSSMVVLWGITIWGILYKSLAKNVNHKLSLIMYLVMGWIGVLFLPTIIFDSSLLFMLFILFGGLAYTIGAWFYAQKNRPYFHMIWHFFIIVASVFHFVAIMYFM”, the protein production was “failed”.
For “MIGDLDISGVFLPTLLVLMGITYGLYLLVHGVLTRLHFYRLVWHRALFNVGLYALLLGAVDSLSRYLMT”, the protein production was “failed”.
With “MVQAQTRDQIVAAADELFYRQGFAQTSFVDISAAVGISRGNFYYHFKTKDEILAEVIRLRLARTAQMLADWQGTGDSPRARIASFIDLMIMNRAKITRYGCPVGSLCTELSKLDHAAQGQANGLFTLFRDWLQRQFAEAGCTTEAPALAMHLLARSQGAATLAQSFHDEGFLRSEVADMHRWLDNTLPMTT” the protein production was “not failed”.
For “MVSSLSVYYRKLAYHVIESDGFLWVGFKPGMVHFIAKEVWNIRPLTRTDVERYYEEFTVLTQGKGSLYFRIVAHGGFLKEALAYELHGLTVSDDNYLRSLNSGRHVELYPHNEKAYRAIIKGFEQHRIGTVVQATGTGKSYLLARYISDHATERICVFAPNVTILEEIKKAVGFTSPYICYRTFQSLIYYRKNDKQLKADHILIDEFHHFGAEIWGAALQEVIESNPQAYILGTSATPIRPEGMIDTVDLYFEGNLFYELTLPQAWYYRILPVPILVQSAYGLDGELNRLQKRLDRSGCSIRRKEQVQKKLDVARVDFKGALGAPEVIRKFLPKDVCKLLVFCRDLTDLKQMVPEVCGWLTQAGRVIIPFEIHHTQSERINNQILKAFQKESGKLHVLFSVNMLIEGLHVEGIDAVLFLRRTESYIVTLQQLGRCLDAGSGKQPVVLDFVNNLSGKSVYDMMALHMERLACQPSPKGFEGVTSFLTTGFLSDIRLRIEEILTELEPWQIMYERLIEFRKKENDWPSVTEGKLGLWCNTQRMAYKRGRLSEERYKLLESVGFEWNLLDSNWMKEFQSLKVFFATQGRWPKREDGALATWCYTQRERRKKGRLSKERIRVLDEIGFVWSQDLNGEWMKNYEALKIFLDKQQRFPKSAEGYLGEWCSTQRKMRKQGKLSPDRQTLLDRIGFVWSVEQVWRSHLEQLHQFHVQNGRWPGCREGALGRWCTVQRRNYRRGSLSDQKIVQLEQIGFIPLKGDE”, the protein production was “failed”.
In the case of “MILNPQQRTKLDSRRDDLFYAAPRFVTHVDDFFLARLTDLYRQYLQPQMRVLDLMSSWVSHLPPELSFQEVVGHGMNAAELARNPRLDRYFVQNLNEELALPLEDASFNAVLMAVSVQYLQYPEATFTEIARILKPQGVVIVSFSNRMFFEKAIQAWREGSEGDRVQLVQTYINSTPSLKVIATHLPRLWPWRGFTDPFYAVVGQKQAVLEHHHHHH”, the protein production is reported as “not failed”.
In the case of “MNQPFLSVVIATFNVAEVLRECLHSLASQTFRDFEVVIQDGASTDGTLAVAQEAAGRLPRLSLASVADSGIYDAWNRALPRVTGDWVLFLGSDDTLAGPDVLAQCARRLADLPPQVLYACGDALEVYPDGSSRAVTCTAEGATRRMADHIPFCHSSLWHRACLFEARHFDATLRIAADYDLICRTWPHDGVGHTLGITVTHMGVGGVSSSPAHRLRTQWELVRVAARHGHGAFSRRRLVPLCKAVGLWVLCRLAGRRASVMLDRLRVMRGLPPCWTTADPARVGGRDSARGDALEHHHHHH”, the protein production is reported as “failed”.
With “MRYIKFFKELNNKNVNLVGGKNASIGEMFQELVPIGIKVPDGFAITSEAYWYLLEQGGAKQKIIELLENVDATEIDVLKIRSKQIRELIFGTPFPSDLRDEIFQAYEILSQQYHMKEADVAVRSSATAEDLPDASFAGQQDTYLNIKGKTELIHYIKSCLASLFTDRAISYRASRGFDHLKVALSVGVQKMVRADKGSAGVMFSIDTETGFKDAVFITSAWGLGENVVGGTINPDEFYVFKPTLEQNKRPIIKRQLGNKTQKMVYAPRGSEHPTRNIKTTKKEWQSFSLSDEDVLILAKYAIEIEKHYSKEAKQYRPMDIEWAKDGESGEIFIVQARPETVQSQKSKEESQVFEKFKFKNPNEKKEIILQGRAIGSKIGSGKVRIINDLEHMNSFKEGEILVTDNTDPDWEPCMKKASAVITNRGGRTCHAAIVAREIGVPAIVGVSGATDSLYTGMEITVSCAEGEEGYVYAGIYEHEIERVELSNMQETQTKIYINIGNPEKAFGFSQLPNHGVGLARMEMIILNQIKAHPLALVDLHHKKSVKEKNEIENLMAGYANPKDFFVKKIAEGIGMISAAFYPKPVIVRTSDFKSNEYMRMLGGSSYEPNEENPMLGYRGASRYYSESYNEAFSWECEALALVREEMGLTNMKVMIPFLRTIEEGKKVLEILRKNNLESGKNGLEIYIMCELPVNVILADDFLSLFDGFSIGSNDLTQLTLGVDRDSELVSHVFDERNEAMLKMFKKAIEACKRHNKYCGICGQAPSDYPEVTEFLVKEGITSISLNPDSVIPTWNAVAKLEKELKEHGLTEH” the protein production was “failed”.
In the case of “MATVIAKPEAIAPEPKRRFTWPRGSRLGRLIVVLNVVALAIVIVGALILNELRNGLVNARIDSLSTQGELIANVIDQSATVGEPEPALDPYTASQIFQLLFIPRSQRARLFDAQGKALADSFVVADRVDWKVLPPARKPDQKDDDARTTPDRAAKAKRAQEALANEIAQAMRGRTVAGTRIAENGERVVSVSIPIQHVKAVLGVLTLEASDVDEIIAAQRKALLPFIAVAMLAILTSSVLLHRLIAVPVLRLARAADHVRLQGARAISLPDLSERKDELGDLSRSLEDMTHSLSERMDAIERFAADVAHEIKNPLTSIRSAIETLDLVTEPAARARLLAILQNDVNRLDRLVTDISNASRLDAELSREHPKALDLGRLLTEVVSLYENQWRPGDAPGSVRVSLSLADPSQPAIILGRETPIGQVFRNLIDNARSFSPADGEVRVTLSRTRGGLIAAVEDDGPGMPPENLETIFERFYTSRPKGRAFGGNSGLGLSIARQIVETHGGTVHAENRKDANGAVVGARFVVELPDARE”, the protein production is reported as “failed”.
With “MMIMLSKRPVAMRIALRPLALAASLILSTPFALNATTFGTDLLEGQVLDGIGTGAGNLGTVADIQNTLSNMLRDEAAIGTLASVLPQALQRLPDDRQLRLLQAVVWAATRRDDDARAQMAQIGQEPPNVWRHVAEGLIARNAGDLARAAASLDEARALDPDNAYVHNTAGSIAFAAGDLEAAQEHFAQAVKSAPGWPRLLRQPCRHDDRTRQSARGPDHSGRKPPSPSRLLRHPPDGGRGASVARAVGCCRSRAAHLP” the protein production was “failed”.
For “RRRNQKRANAERERLRQIIDTIPQQVFVKDADGTYTLANKAAAAAHGVAVERLEGATHDEFALSDEQRDFKSDDAAVIENGESVHIEEDGLVEADGSSHTVQTDIVPIEIASGERRALVVATDIT”, the protein production was “failed”.
In the case of “MMAACWFGCAPAAELHAYTEDVPPLNYLDNGNVKGYSTEVLQLVAREAGFNLTVEVLPWLRAYAKARDTAGGLLYTVVRTPEREAQFQWVGPIGSRRIYMYRLGPRGNIRVDAASDLTRYRNGVLTGSATASQLQALGLQSGLNLDLGQSDAVNLKKLLLKRVDLIAMLDWAMAWQLRLQRLPENTVAPAWLLDGKLQYWFALNPHTPPEQVAKLQAALDRIRADGRLQAIRRRYRDD”, the protein production is reported as “failed”.
With “MNAIGIVGTGAMGRGIAQIAAQAGLRVRLFDASPQAVEAARAALADTLARLAAKGRLTADQADAALARLMPAAALAELADCDLVVEAIVENLEAKRDLFRQLEAIVGPETILASNTSSLSITAIAAACRRPERVAGFHFFNPVPLMKVVEVIAGLRSAPAACDALAALAGRMGHAAVRCTDMPGFIVNHAGRGMNTEGLRVVQEGVTAFADVDAVMREQAGFRMGPFELMDLTGLDVSHPVMESIYRQFYDEPRYRPSRITAVRLAGGLLGRKTGEGFYRYADGQKPVPPEAAAPAARPKSVWVSRAHAAGHTAAQRLLLDLCVTPEDGAWPSAEALIVVTPRGLDATAAAVAEGLDGRRTVALDTLYPFAATRRRTLMTTPATDPAHRDAAHGLFAADGVPVTVIRDSGGFVAQRIVACIVNIACDIAQQRIATPADIDLAVTLGLGYPQGPLALGDTLGAGAVLEVLQNLTTLYGDPRYRPSPWLLRRARLGLSLLTPDA” the protein production was “failed”.
In the case of “AAGSENTNYFISLEQGEFVLTLVERGPVQEMPFFIELLDVLHDANLPVPYALRTTDGQALRELAGKPALLQPRLPGKHISEPNTQHCVQIGELLANLHLATREQVLERKTDRGLDWMLSEGRNFLSHLGETQRALLEKSLQEIEDLKPQIMALPRANLHADLFRDNVLFEGTHLTGLIDFYNACSGPMLYDLAIALNDWCSRENG”, the protein production is reported as “failed”.
For “MQIGGRQHGDWTHYSVDSDLVVAADAWQVSLGLPGGVFPPDVEPGAMVKVQVGGETVLMGRIDDISHSVASGSHQLTLSGRDLAGMLLDCSAPLFTGKGMTLQDVLDNVVKPLGIANIRVDAKARGQIEKINVDPGNSAWDVLTRAAQANGLTAWFDPDGTLLVGGPDYSRPASARLILRRDGKGNNVLSLAETRSHAQRYSELTLLGQGHGQSLTPGRHAMRHHVFDSDVCYHKPRIQVEPDAASPAELAARADKMLADARLAGYTLTATVAGHRDSQGALWTPGQRIEVESEPHGINGTYFLMARTFEGGRGQGSVTRLTLKEDKCWIPVMRAGKQ”, the protein production was “failed”.
In the case of “MPVSNEIWQLLSRLAEDIRPIGVNISAGEPNRLWTEAKWRALLERFPGERFVVLSGPDDLDAKRRLEEQCPNAVASPPTRNLYEASCIVAKLRLLVTPDTSMVHVASATGTPVAGLYREAPQDISRFGPYAIPYEIVISPTGEVSGIKPESVADAVRRLMARAIGREALEHHHHHH”, the protein production is reported as “not failed”.
In the case of “MAKYDVLTIGNAIVDIIARCDDSFLEENGIIKGAMNLINADRAELLYSRMGPAVEASGGSAGNTAAGVASLGGRAAYFGKVADDQLGEIFTHDIRAQGVHFQTKPLDGHPPTARSMIFVTEDGERSMNTYLGACVELGPEDVEDDVVAQSKVTYFEGYLWDPPRAKDAIREAARIAHAHGRETAMTLSDSFCVHRYRSEFLELMRSGTVDIVFANRQEALALYETEDFDRALELLARDCKLAAVTLSEEGSVVVRGAERVRVGASVLEQVVDTTGAGDLYAAGFLFGYTSGRSLEECSKLGNLAAGIVIGQIGPRPLVSLATAARQAALV”, the protein production is reported as “not failed”.
For “MATIYLVRHGQASFGKENYDQLSPRGWEQGRILGRWLAGKVEPGAVFGGNLQRHRETVEAITTGYGVSLPDMQVLEGLNEFDHLEVVERLRPEWADKQVMARDLASFPKPAKAFQQAFEKAVARWVSGDYDHEYTETWIDFRQRVGAALDELIELAGGADVIVSTSGGPIAVIAQHLLELSDRKALEMNNVIANTSVSRILYSGPRRSLAVFNNYSHLEAEDPALVTFR”, the protein production was “failed”.
